Measured values published in publication PMC8392014.

Molecular target: RSV phosphoprotein fragment P_(127–163) (respiratory syncytial virus (RSV)) (UniProt P12579)
Assay: SAXS; SEC-SAXS, 293 K, 200 µM P127-163 in 20 mM Na phosphate pH 6.5, 100 mM NaCl; scattering curve fitted with the NMR structure on the FoXs server

Work on “RSV phosphoprotein fragment P_(127–163) (from UniProt P12579 127-163) (domain or fragment)” yielded a stoichiometry N of 4.
